# ± gives the uncertainty stated by the source.
# B1: library; numbered along this chain (parent)
# chain: MEVVDPQQLGMFTEGELMSVGMDTFIHRIDSTEVIYQPRRKRAKLIGKYLMGDLLGEGSYGKVKEVLDSETLCRRAVKILKKKKLRRIPNGEANVKKEIQLLRRLRHKNVIQLVDVLYNEEKQKMYMVMEYCVCGMQEMLDSVPEKRFPVCQAHGYFCQLIDGLEYLHSQGIVHKDIKPGNLLLTTGGTLKISDLGVAEALHPFAADDTCRTSQGSPAFQPPEIANGLDTFSGFKVDIWSAGVTLYNITTGLYPFEGDNIYKLFENIGKGSYAIPGDCGPPLSDLLKGMLEYEPAKRFSIRQIRQHSWFRKKHPPAEAPVPIPPSPDTKDRWRSMTVVPYLEDLHGADEDEDLFDIEDDIIYTQDFTVPGQVPEEEASHNGQRRGLPKAVCMNGTEAAQLSTKSRAEGRAPNPARKACSASSKIRRLSACKQQ
# Variants of: B1
# Experiment: STK11 functional score (HeLa growth suppression), rescaled enrichment; synonymous median = 1, nonsense median = 0 (normalised score)
# Conditions: with HeLa; variant type: missense
# Summary of the method: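 The functional score takes the post/pre-selection log ratio, corrects it to wild type, rescales it to synonymous and nonsense medians, and merges it over codons and replicate transfections, with error from bootstrapping. Counts came from tiled gDNA amplicons sequenced on NextSeq (~2 million reads per tile). The libraries were POPCode codon-randomised, codon-optimised STK11 integrated by Bxb1 at an AAVS1 landing pad in HeLa, three regions with three transfections each.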
row,Variant,STK11 functional score
1,MEVVDPQQLGMFTEGELMSVGMDTFIHRIDSTEVIYQPRRKRAKLIGKYLMGDLLGEGSYGVVKEVLDSETLCRRAVKILKKKKLRRIPNGEANVKKEIQLLRRLRHKNVIQLVDVLYNEEKQKMYMVMEYCVCGMQEMLDSVPEKRFPVCQAHGYFCQLIDGLEYLHSQGIVHKDIKPGNLLLTTGGTLKISDLGVAEALHPFAADDTCRTSQGSPAFQPPEIANGLDTFSGFKVDIWSAGVTLYNITTGLYPFEGDNIYKLFENIGKGSYAIPGDCGPPLSDLLKGMLEYEPAKRFSIRQIRQHSWFRKKHPPAEAPVPIPPSPDTKDRWRSMTVVPYLEDLHGADEDEDLFDIEDDIIYTQDFTVPGQVPEEEASHNGQRRGLPKAVCMNGTEAAQLSTKSRAEGRAPNPARKACSASSKIRRLSACKQQ [K62V],1.61 ± 0.2
2,MEVVDPQQLGMFTEGELMSVGMDTFIHRIDSTEVIYQPRRKRAKLIGKYLMGDLLGEGSYGKVKEVLDSETLCRRAVKILKKKKLRRIPNGEANVKKEIQLLRRLRHKNVIQLVDVLYNEEKQKMYMVMEYCVCGMQEMLDSVPEKRFPVCQAHGYFCQLIDGLEYLHSQGIVHKDIKPGNLLLTTGGTLKISDLGVAEALHPFAADDTCRTSQGSPAFQPPEIANGLDTFSGFKVDIWSAGVTLYNITTGLYPFEGDNIYKLFENIGKGSYAIPGDCGPPLSDLLKGMLEYEPAKRFSIRQIRQHSWFRKKHPPAEAPVPIPPSPDTKDRWRSMTVVPYLEDLHGADEDEDLFDIEDDIIYTQDFTVPGQVPEEEASHNGQCRGLPKAVCMNGTEAAQLSTKSRAEGRAPNPARKACSASSKIRRLSACKQQ [R383C],1.22 ± 0.12
3,MEVVDPQQLGMFTEGELMSVGMDTFIHRIDSTEVIYQPRRKRAKLIGKYLMGDLLGEGSYGKVKEVLDSETLCRRAVKILKKKKLRRIPNGEANVKKEIQLLRRLRHKNVIQLVDVLYNEEKQKMYMVMEYCVCGMQEMLDSVPEKRFPVCQAHGYFCQLIDGLEYLHSQGIVHKDIKPGNLLLTTGGTLKISDLGVAEALHPFAADDTHRTSQGSPAFQPPEIANGLDTFSGFKVDIWSAGVTLYNITTGLYPFEGDNIYKLFENIGKGSYAIPGDCGPPLSDLLKGMLEYEPAKRFSIRQIRQHSWFRKKHPPAEAPVPIPPSPDTKDRWRSMTVVPYLEDLHGADEDEDLFDIEDDIIYTQDFTVPGQVPEEEASHNGQRRGLPKAVCMNGTEAAQLSTKSRAEGRAPNPARKACSASSKIRRLSACKQQ [C210H],1.42 ± 0.24
4,MEVVDPQQLGMFTEGELMSVGMDTFIHRIDSTEVIYQPRRKRAKLIGKYLMGDLLGEGSYGKVKEVLDSETLCRRAVKILKKKKLRRIPNGEANVKKEIQLLRRLRHKNVIQLVDVLYNEEKQKMYMVMEYCACGMQEMLDSVPEKRFPVCQAHGYFCQLIDGLEYLHSQGIVHKDIKPGNLLLTTGGTLKISDLGVAEALHPFAADDTCRTSQGSPAFQPPEIANGLDTFSGFKVDIWSAGVTLYNITTGLYPFEGDNIYKLFENIGKGSYAIPGDCGPPLSDLLKGMLEYEPAKRFSIRQIRQHSWFRKKHPPAEAPVPIPPSPDTKDRWRSMTVVPYLEDLHGADEDEDLFDIEDDIIYTQDFTVPGQVPEEEASHNGQRRGLPKAVCMNGTEAAQLSTKSRAEGRAPNPARKACSASSKIRRLSACKQQ [V133A],1.41 ± 0.4
5,MEVVDPQQLGMFTEGELMSVGMDTFIHRIDSTEVIYQPRRKRAKLIGKYLMGDLLGEGSYGKVKEVLDSETLCRRAVKILKKKKLRRIPNGEANVKKEIQLLRRLRHKNVIQLVDVLYNEEKQKMYMVMEYCVCGMQEMLDSVPEKRFPVCQAHGYFCQLIDGLEYLHSQGIVHKDIKPGNLLLTTGGTLKISDLGVAEALHPFAADDTCRTSQGSPAFQPPEIANGLDTFSGFKVDIWSAGVTLYNITTGLYPFEGDNIYKLFENIGKGSGAIPGDCGPPLSDLLKGMLEYEPAKRFSIRQIRQHSWFRKKHPPAEAPVPIPPSPDTKDRWRSMTVVPYLEDLHGADEDEDLFDIEDDIIYTQDFTVPGQVPEEEASHNGQRRGLPKAVCMNGTEAAQLSTKSRAEGRAPNPARKACSASSKIRRLSACKQQ [Y272G],1.2 ± 0.21
6,MEVVDPQQLGMFTEGELMAVGMDTFIHRIDSTEVIYQPRRKRAKLIGKYLMGDLLGEGSYGKVKEVLDSETLCRRAVKILKKKKLRRIPNGEANVKKEIQLLRRLRHKNVIQLVDVLYNEEKQKMYMVMEYCVCGMQEMLDSVPEKRFPVCQAHGYFCQLIDGLEYLHSQGIVHKDIKPGNLLLTTGGTLKISDLGVAEALHPFAADDTCRTSQGSPAFQPPEIANGLDTFSGFKVDIWSAGVTLYNITTGLYPFEGDNIYKLFENIGKGSYAIPGDCGPPLSDLLKGMLEYEPAKRFSIRQIRQHSWFRKKHPPAEAPVPIPPSPDTKDRWRSMTVVPYLEDLHGADEDEDLFDIEDDIIYTQDFTVPGQVPEEEASHNGQRRGLPKAVCMNGTEAAQLSTKSRAEGRAPNPARKACSASSKIRRLSACKQQ [S19A],0.891 ± 0.38
7,MEVVDPQQLGMFTEGELMSVGMDTFIHRIDSTEVIYQPRRKRAKLIGKYLMGDLLGEGSYGKVKEVLDSETLCRRAVKILKKKKLRRIPNGEANVKKEIQLLRRLRHKNVIQLVDVLYNEEKQKMYMVMEYCVCGMQEMLDSVPEKRFPVCQAHGYFCQLIDGLEYLHSQGIVHKDIKPGNLLLTTGGTLKISDLGVAEALHPFAADDTCRTSQGSPAFQPPEIANGLDTFSGFKVDIWSAGVTLYNITTGLYPFEGDNIYKLFENIGKGSYAIPGDCGPPLSDLLKGMLEYEPAKRFSIRQIRQHSWFRKKHPPAEAPVPIPPSPDTKDLWRSMTVVPYLEDLHGADEDEDLFDIEDDIIYTQDFTVPGQVPEEEASHNGQRRGLPKAVCMNGTEAAQLSTKSRAEGRAPNPARKACSASSKIRRLSACKQQ [R331L],1.2 ± 0.16
8,MEVVDPQQLGMFTEGELMLVGMDTFIHRIDSTEVIYQPRRKRAKLIGKYLMGDLLGEGSYGKVKEVLDSETLCRRAVKILKKKKLRRIPNGEANVKKEIQLLRRLRHKNVIQLVDVLYNEEKQKMYMVMEYCVCGMQEMLDSVPEKRFPVCQAHGYFCQLIDGLEYLHSQGIVHKDIKPGNLLLTTGGTLKISDLGVAEALHPFAADDTCRTSQGSPAFQPPEIANGLDTFSGFKVDIWSAGVTLYNITTGLYPFEGDNIYKLFENIGKGSYAIPGDCGPPLSDLLKGMLEYEPAKRFSIRQIRQHSWFRKKHPPAEAPVPIPPSPDTKDRWRSMTVVPYLEDLHGADEDEDLFDIEDDIIYTQDFTVPGQVPEEEASHNGQRRGLPKAVCMNGTEAAQLSTKSRAEGRAPNPARKACSASSKIRRLSACKQQ [S19L],0.775 ± 0.094
9,MEVVDPQQLGMFTEGELMSVGMDTFIHRIDSTEVIYQPRRKRAKLIGKYLMGDLLGEGSYGKVKEVLDSETLCRRAVKILKKKKLRRIPNGEANVKKEIQLLRRLRHKNVIQLVDVLYNEEKQKMYMVMEYCVCGMQEMLDSVPEKRFPVCQAHGYFCQLIDGLEYLHSQGIVHKDIKPGNLLLTTGGTLKISDLGVAEALHPFAADDTCRTSQGSPAFQPPEIANGLDTFSGFKVDIWSAGVTLYNITTGLYPFEGDNIYKLFENIGKGSYAIPGDCGPPLSDLLKGMLEYEPAKRFSIRQIRQHSWFRKKHPPAEAPVPIPPSPDTKDRWRSMTVVPYLEDLHGADEDEDLFDIEDDIIYTQDFTVPGQVPEEEASHNGQRRGLPKAVCMNGTEAAQLSTKSRAEGRAPNPARKACSAYSKIRRLSACKQQ [S421Y],1.61 ± 0.12
10,MEVVDPQQLGMFTEGELMSVGMDTFIHRIDSTEVIYQPRRKRAKLIGKYLMGDLLGEGSYGKVKEVLDSETLCRRAVKILKKKKLRRIPNGEANVKKEIQLLRRLRHKNVIQLVDVLYNEEKQKMYMVMEYCVCGMQEMLDSVPEKRFPVCQAHGYFCQLIDGLEYLHSQGIVHKDIKPGNLLLTTGGTLKISDLGVAEALHPFAADDTCRTNQGSPAFQPPEIANGLDTFSGFKVDIWSAGVTLYNITTGLYPFEGDNIYKLFENIGKGSYAIPGDCGPPLSDLLKGMLEYEPAKRFSIRQIRQHSWFRKKHPPAEAPVPIPPSPDTKDRWRSMTVVPYLEDLHGADEDEDLFDIEDDIIYTQDFTVPGQVPEEEASHNGQRRGLPKAVCMNGTEAAQLSTKSRAEGRAPNPARKACSASSKIRRLSACKQQ [S213N],1.65 ± 0.19
11,MEVVDPQQLGMFTEGELMSVGMDTFIHRIDSTEVIYQPRRKRAKLIGKYLMGDLLGEGSYGKVKEVLDSETLCRRAVKILKKKKLRRIPNGEANVKKEIQLLRRLRHKNVIQLVDVLYNEEKQKMYMVMEYCVCGMQEMLDSVPEKRFPVCQAHGEFCQLIDGLEYLHSQGIVHKDIKPGNLLLTTGGTLKISDLGVAEALHPFAADDTCRTSQGSPAFQPPEIANGLDTFSGFKVDIWSAGVTLYNITTGLYPFEGDNIYKLFENIGKGSYAIPGDCGPPLSDLLKGMLEYEPAKRFSIRQIRQHSWFRKKHPPAEAPVPIPPSPDTKDRWRSMTVVPYLEDLHGADEDEDLFDIEDDIIYTQDFTVPGQVPEEEASHNGQRRGLPKAVCMNGTEAAQLSTKSRAEGRAPNPARKACSASSKIRRLSACKQQ [Y156E],1.15 ± 0.36
12,MEVVDPQQLGMFTEGELMSVGMDTFIHRIDSTEVIYQPRRKRAKLIGKYLMGDLLGEGSYGKVKEVLDPETLCRRAVKILKKKKLRRIPNGEANVKKEIQLLRRLRHKNVIQLVDVLYNEEKQKMYMVMEYCVCGMQEMLDSVPEKRFPVCQAHGYFCQLIDGLEYLHSQGIVHKDIKPGNLLLTTGGTLKISDLGVAEALHPFAADDTCRTSQGSPAFQPPEIANGLDTFSGFKVDIWSAGVTLYNITTGLYPFEGDNIYKLFENIGKGSYAIPGDCGPPLSDLLKGMLEYEPAKRFSIRQIRQHSWFRKKHPPAEAPVPIPPSPDTKDRWRSMTVVPYLEDLHGADEDEDLFDIEDDIIYTQDFTVPGQVPEEEASHNGQRRGLPKAVCMNGTEAAQLSTKSRAEGRAPNPARKACSASSKIRRLSACKQQ [S69P],1.04 ± 0.15
13,MEVVDPQQLGMFTEGELMSVGMDTFIHRIDSTEVIYQPRRKRAKLIGKYLMGDLLGEGSYGKVKEVLDSETLCRRAVKILKKKKLRRIPNGEANVKKEIQLLRRLRHKNVIQLVDVLYNEEKQKMYMVMEYCVCGMQEMLDSVPEKRFPVCQAHGYFCQLIDGLEYLHSQGIVHKDIKPGNLLLTTGGTLKISDLGVAEALHPFAADDTCRTSQGSPAFQPPEIVNGLDTFSGFKVDIWSAGVTLYNITTGLYPFEGDNIYKLFENIGKGSYAIPGDCGPPLSDLLKGMLEYEPAKRFSIRQIRQHSWFRKKHPPAEAPVPIPPSPDTKDRWRSMTVVPYLEDLHGADEDEDLFDIEDDIIYTQDFTVPGQVPEEEASHNGQRRGLPKAVCMNGTEAAQLSTKSRAEGRAPNPARKACSASSKIRRLSACKQQ [A225V],1.28 ± 0.52
14,MEVVDPQQLGMFTEGELMSVGMDTFIHRIDSTEVIYQPRRKRAKLIGKYLMGDLLGEGSYGKVKEVLDSETLCRRAVKILKKKKLRRIPNGEANVKKEIQLLRRLRHKNVIQLVDVLYNEEKQKMYMVMEYCVCGMQEMLDSVPEKRFPVCQAHGYFCQLIDGLEYLHSQGIVHKDIKPGNLLLTTGGTLKISDLGVAEALHPFAADDTCRTSQGSPAFQPPEIANGLDTFSGFKVDIWSAGVTLYNITTGLYPFEGDNIYKLFENIGKGSYAIPGDCGPPLSDLLKGMLEYEPAKRFSIRQIRQHSWFRKKHPPAEAPVPIPPSPDTLDRWRSMTVVPYLEDLHGADEDEDLFDIEDDIIYTQDFTVPGQVPEEEASHNGQRRGLPKAVCMNGTEAAQLSTKSRAEGRAPNPARKACSASSKIRRLSACKQQ [K329L],1.42 ± 0.25

# Reference: the supplement of paper PMC12338614
